Assay: soluble on expression in E. coli; label from the status in PepcDB or PDB records

Sequence	soluble on expression in E. coli
MGSDKIHHHHHHMTVLYKGSLKQNNDPFHVTLLSKEHIEQILFLQNVVVEGLEDKSRLQPLSQEEFQYILEGNGMMIGAFIKNELIAFRALLVPPIDDEHLGLDIGLPESELHRVIYQEISNVHPNCRGNGMQKILATVIMDELQKENGKYDYVCCTVAPFNIPSLKDKFSQGMEIAALKEKYGGSMRYVFVKELREDKEKDWTEIKSVPMNNAGGQQALLSEGYRGYEMEKVDEDFVVKFGR	not soluble
MGSDKIHHHHHHMTVNSIKLLLLPALLLLVSACSSPEPIISLSGSTMGTTYHIKVVNSDRLPEAQLLQAEIDMALEVVNDQMSTYRSDSELSKFNQLQVQQSVKVSADTIKVIEEGMRLYQETDGALDITLGPVVNLWGFGPDKRPTTIPTQAQIDNAKAKMGIKELSIKGLTLTKHNADLYVDLSSIAKGFGVDKIAAILDKYHVSGYLVEIGGELNVKGTKDDNTPWRVAVEQPTTEGQAVQQVIEPGTMSLATSGDYRNFYQENGERFSHLIDPRNGYPIKHQLASATVLHSSCMTADGYATAMMVLGTEASLALAKEKNLAIMLIEKQEQGYQVYYSDAFKSYVK	not soluble
MGSDKIHHHHHHMTYAVGDIHGCFYALKSLLEKLPLSEEDELIFMGDYVDRGPNSREVIEFLIELSKHHRCIFLRGNHEEMLLNCVKNGSDCDLWFFNGARSTVESFGGVEEIKKFLPFFENTVYHYEKENYVFVHGGVRPGVSLEDQDPFDLVWIRDEFIYSENPLPGKIVVFGHTPFEEPFVSRDKIGIDTGCVYGGRLTALRVEDRKFFQVECANRRW	not soluble
MGSDKIHHHHHHMVEPSKVVGLISDFGDSPYTGIMRAVIKSISRELQIIDIDHSIPSFSPLAGAYVVAHTYQWLPKGSVIVAVVDPGVGTSRYALAVETENYVFIGPDNGVLYPAAASDGIKRVYALREKDVNSLARMKTSSTAGTVKPWSISRTFHGRDVFAPAGALIAAGHASLEELGDEIEPERMKRASIDHVEKLGPSTFRATVVYIDKFGNVALSIRPKKLGINLSLYKSVVLGTHTTSNTIRMGKTFGDANPGELVAYENSFGHLEIAVNRGNAAKKLGLELEARVEIELLENSGPAPNGSRGVRNADLLGVSSRSLGETIW	not soluble
MGSDKIHHHHHHMVETLAGLFDFEMDPQSGVALTRQLRDQLRRAIAAGSLASGRRLPSSRALALHLRVSRNTVCAAIEQLAMEGYLDVSRGRRPVVAPMPSAGLVAIGSDRPVSDGRSGMSQWAQRIDRSDWPFISEGRPTPFAPCVADARAFPHAIWGRCLRTATRYAVARTSTACNRPGLRRALLHHLVEYRGVNADAHQVFLMPTAQAAIALVARVLLDPGDLAWVESPGYGGARAAFEAAGATVQGIALDQSGMAFETSTDTPRLIFVTPAHQHPTGLLMPPARRQALLRFAARVGARIIEDDYDSEFHYEGRPVAALQGADDADSVFYVGTFSKSLHADIRVGYVVVPGHFVDVFAKAQRHTGQIVGATLQDALAEFIDDGHYAAHIRKTTRLYHARRDYLCDALKAVGSELTVSPPDGGMQVVARLGPLRDDREICRRLAEAGVTARPLSPHYCAQTGAQGLFLGFAAWNECEIDAGVRILARVIREPEPSK	not soluble
MGSDKIHHHHHHMVGALAILMVGYSAAEAGGLRDLLEQGGLSAKVDCVAMADMLPGRLQQQEWDLVLTDDRPDLSAAQVLGLLARLGLDVPVIALVSRQDEQAAAHLIAAGVQDVLLKSDPVQLMATIRGCQRYIGHLRDLREAQLALERSEARFRAIASNLPGLVFQFVLESDGSVFFPYVSEGSRSLLGLSPDYLQKKPNSFARLIVATDVASYDQSLQDSCEHLSAWNWEGRIQAKGDMDVKWISLRATPRRTPRGAVLWDGIMLNITRNKQIELEIARSRAQLEELSAYSQKAKEQERTRIAREIHDDIGGTLTAIKCELVPCLDNSSRTPEFYRNKAEAVESLVDMVIDSTRRIALDLRPGVLDCGIVAAVQWQAREFNQRTGVSCTVACDYEDISLDGDLAVAIFRIFQEALTNIAKHANASEVRVKLAETGSQVYLEVTDNGCGITNPDMEKVNSFGIRSMRERCQQLGGQFHIQGGPLAGTEVLIRIPVNGQSTVGRESRLN	not soluble
MGSDKIHHHHHHMVGIVLASHGNFAEGIYQSAEMIFGKQQNVQTVTLSPNEGPEDFLNKLKQAIDSFDDQKQVLLLIDLWGGTPFNQSSGLLSGHEDSWAVVTGMNLPMVIEAYGSRSSMDSAQEIATHIIETGKDGIRIKPESLEPKKATATVKSSGQPHGTIAPGTVLGDGKIKYVLARVDSRLLHGQVAMSWTKSTNPNRILVVSDSVAKDRLRKSMIVEAAPPGVNTNVIPIKKMIEVAKDPRFGNTKALVLFENPEDALKTIEGGVDIKELNIGSMSHAVGKVAVNKVLSLGKEDVEAFDGLKKLGVKFDVRKVPGDSSENMDNIVIKLEKIYQVLNLKKIRRV	not soluble
MGSDKIHHHHHHMVKELDLQSVQGTMLIPLWGRAYGSEKNKNILDDTEAIRIIKEFDFDFSTIENTFGEYGCITYITRARKIDDTIKQFITKHPNATIVNIGSGLDTTFSRIDNGTIHWYNLDLPDAISFRKTLIEDTSRNTSIAKSFFDTSWFDDIKYDPNDGILFISAGVFYYFKEEDLKKIVVAMSKRFPGGELYFDAESKFALNLSNATVKKSGNNGALMYFYINNPKTLEKWSPNIKVLSCSPFFKNIPTNKGWDGSTRIMIRIVNLIKMLKFVHLRFEK	not soluble
MGSDKIHHHHHHMVKTVNWRDLLEPQTKIRDPLYGYIWVTDDELQIIDTPIFQRLRRVNQLALTKYVYPTAEHSRFVHSLGAMHCATQIFTGILNNTHSYHGIRAIDSANMLRRLRYAALLHDIGHIAFSHAAEKLILNPLQHEHLGQFIIANYSPISSILGEHIKPVISILADSVTQDNRLLHQIISGHLDADRADYLMRDSHACGVKYGEYDFERYMQAFGAINESNELKLFVHERDIFVIESFLVARHHYNMQVPYHRTRMGYDIILGRFLKEFLPKCDDAKLGLTVEEGAYTKVDLQKFEFFDDYSVFNHIKHEARTGNLWANMLLRQGHLCPVYDTTDSVDRGGKVFKKIIRRLKAKNFVEDDDFFQCRKEITASKLISTDEKENSLADTSRETIYVRTKSGKLVDIVKHSNIVRALRPVTIYRIYTSQKRKSEAEAVIADVCRKTQVDRRG	not soluble
MGSDKIHHHHHHMVKYMKIVGITDLHGKLPPAVREFKDFADVLVVCGDITHFGKGIEVIEKLAELSDYMEVLCVPGNCDTKEVIDELNSFKLNIDRKVKKIENINFVGIGGSNKTPFNTPNEYTEEEIYNKLINVVKNLKNIFLVSHAPPYNTMADIVDLDKDIHVGSKSIRKIIEDFNENIRFCACGHIHESRCIDKIGNTIVVNPSPKSYFVYDTKKNMVVLDDFNGF	not soluble
MGSDKIHHHHHHMVNFSYRVFAAVVEKKTFFHAAESLNVTPSAVSHSISQLENELGFPLFLRNHSGVELTNDGKTVLPVIQAILNTEEELYQVSASIKGLNSGRIRIGAFSSVCINWLPTIIRRFKNQYPQVEVTVFQGNFNQIADGVSNGSIDIGFSSLPVDDKLLVEPLIKDRIYCVAPSDFVPKDKMNVTNQDIGRRRFILQQIDYDRDTKKALDQYNVTPNSLTYSIDDQSILSMVESGLGLGILPELALKKLSGNVHIYPFDKNFARTICLVTNKNLAQAPSTKRMLKEINSFLRSNYKNQFLG	not soluble
MGSDKIHHHHHHMVNLMNINSHYLHNNSHECVSLSVRSKGTTQCPDIKVTQKAHIELGTLATPQLVRRRSGRYTIRLRLKGHAKPFISVSTRTTNRSIAVMRQKELATTAKAFLLDNPEVSKEELREHLKAMAEWLLTEATDDYWNGLDIAWLEDAKVNLRNIAATERLSAVQQTHIVESLKVLEAGQKRVDYGDATGLLDFVADDNTDSANNHTQGSTIGVLSSNLENQQGGSSSVFTYDDLVSMTLAEKITTLATSSYRDLQSSFSTVRGYAPVDLMDRSAWLKARDELLANGKAAITVNKLFVKVRMAIDYALMNGHLQGRNPIEKMKLTKDAESKRRAMTDEEIQMVLKAAESAPEARRWAVLVSIITGARSAEVAQLTKENIVVVDGITCIDINDDEGKKVKNKHSIRLIPLIDGAYGFNLEAFLKFVNTREPKTAIFGMTAGTYTAYFGRSIKGSIDALKDTKNVCMHSLRHSLTGKLKAAGVPLADAQGVLGHSSQSITYDLYGKGHAIGRLSDALRLALSGTGQ	not soluble
MGSDKIHHHHHHMVNPKLPVIWYGGDYYPEQWDEETFERDIRMFKEAGINVVTIGVFSWSLIQPDENTYDFSFFEKVMDRLYKEGIYVCLATPTSAPPHWMTQKYPEILFTDVNGVKREKGGRQNFCPNSEKYRYFARNIAEKLAEHFKDHPALVLWHVNNEYLNYCYCDICRGKFQNWLKEKYGTLDELNRRWNTRFWSQTFTAWEEIPVPTTRSVLVWRKDRYQSVLPELYLDYRRFMTQSMLECFLEEYRAIKKHTPDIPVTTNLIAATFKEWNYFEWAKHMDVAAWDNYPGYKEDFSVISLRHSLIRCLKEGKPFVLMEQSPSQACWRWYNPQKRPGEMRLWSYHALAHGAETLMFFQLRQSKGGVEKFHGAVITHVDSPNTRVFQEVKRVGEEIKSLSDILDARVVSQTALLFDWESWWAMEDTLTPSVDFRYLNEVQKYFKALVKTGLGVDVVGKDQNFERYRVLVAPVLYMVGKELAQKLKDYVSNGGILILTTMSGIVDEDDQVVLGGYPGYLRDLMGGYVEEIDALPPEEKNEILMFGKRYECSLVFDYIKTTTAEVLGRFGRDYYMNEPAVLRNNYGKGWVYYVGSSTSFDLVWDLVKFMEREHNLRAEIAPPDDVEVIKKIKGEKIFYFLFNHSHELQIVDLPEGMFRDLIKGNLYEKKVKLQPLDVLILLKE	not soluble
MGSDKIHHHHHHMVRLNEIKMQDGKIFLITGANSGLGYETSKFLLERGATVIMCCRDLLKGEKAKKELLKFKFSGKIELVELDLSDLINVKKFAESIKNTFDHLDVLINNAGIMAPPKTLSKQGFEIQFAVNHLAHMFLTLELLPMLEEKNNSRVVTVTSGVQYFGKIQWEDLQGNLKYDRWASYAQSKLANVMFGLELDSKLKETNSKTSSLLAHPGFARTNLQPKSVEANQSWQEELAYKLMDPMFQSAKMGALPQITAATLTSASGGEQYGPRFNFRGFPKICRNAPKALNQTSRKKLWDISEKLIKDFDTLSKQSK	not soluble
MGSDKIHHHHHHMVRTTKFGDLPVLHVFAASQAQTKLPTIIDYHGWTNQTATELGTAYQLVRAGFRVILPTAYLHGSRNDGTDLDRHPEHFWSIVGHSVAEFPQLVAALVAAGISDANKIGVMGTSMGGITAAGIMATQPTVVAGVSLIGSPEPVAFATDQVAQLPAALQAKLPAELIEQTYQQLAKFDLSEHPEALAGRPMFFFNGTADQMVPYQYIRDFKHRFKDEPALKATVFKRAEGGVHHVPHKIQEAAVAFLETNILK	not soluble
MGSDKIHHHHHHMVSPEHLRRSKAVQRRTGRTFHIATRFLPERVRYPTYVLYAFFRLTDEIVDDEAPGPPDEQRRRLAHVRAAALGDRDPDDPVLAAFAALREDHDIPREEVTTFIDAMQQDVDTARYRSHDDLAEYLRGSSVAVGYMMLSIMDAPEPERARPHAASLGEAFQLTNFLRDVREDVLDYDRIYLPSQTLAAHGASHDDIAALSATPQVRDAIRAELDRTERLYRHGVAGIEHLPADCQFPVLAAAVMYADQHRLIRAQDCDVLSQRPTLTLRRRLSVVARTWLRWRVSDDPTAVFHAVTGIGEPDAGGVPEQSFAVRESQPTRAD	not soluble
MGSDKIHHHHHHMVVIEFKNVSKHFNLYKNKSYSLKEKFLNKVLNRNKLEVEQLHVLKNASFKIGQGETIGIIGENGTGKSTSLKLVANIIRPNEGQVTVKGKISSLLEVGVGFQPDMTGRENVYLYGSIMGLSKKEIDERYDEIVEFAELENFMDTPVKNYSSGMYMRLGFSVAVTVNPDILLVDEVLAVGDANFQKKCLNKIQAFKEQGKTILFVSHDMSTVRRICDRCIFIRKGGEVIEGSTDRMVGLYMKLLYAKSEEHKKEEQKSEESLADFDFKLHEADEFKDGNREGNKKLEITKLYFSDKEGRPRNFFGTEENIKVNVEFRKNTDIKAAVMAFEIITEEGYKLIYHDCKQDGMLITEMKDTNMVSFSLQNELLLKSKYYFSIALMDENLQEIYDFRHKHYWFTIHEGNIKEDGKVKISCDWML	not soluble
